Results from patent US20230233707A1 (University of Washington, published 2023).

Target: T1, Fc from human IgG1 (human, UniProt P01857-1 104-330 = IgG part)
T1 construct: domain: Fc; also called human IgG1 Fc; IgG1 Fc protein
Test: SEC, design mixed with human IgG1 Fc, overlaid on the single components [panel B]
Excerpt: Synthetic genes encoding designed protein sequences appended with a C-terminal 6× histidine tag were expressed in E. coli. Designs were purified from clarified lysates using immobilized metal affinity chromatography (IMAC), and size exclusion chromatography (SEC) was used as a final purification step. […] Designs were then combined with human IgG1 Fc, and the assemblies were re-purified via SEC. Eight of these AbC-forming designs assembled with Fc into a species that eluted as a monodisperse peak at a volume consistent with the target nanoparticle molecular weight (FIG. 2a-b; 3 D2 dihedral, 2 T32 tetrahedral, 1 O42 octahedral, and 2 I52 icosahedral AbCs). For the i52.6 design, adding 100 mM L-arginine to the assembly buffer prevented aggregation after combining with Fc; all other designs readily self-assembled in Tris-buffered saline.
Designs that produced monodisperse SEC peaks around their expected retention volume were combined with Fc from human IgG1. Fc was produced recombinantly either using standard methods for expression in HEK293T cells or in E. coli (43). Cage components were incubated at 4° C. for at minimum 30 minutes. […] Fc-binding and cage formation were confirmed via SEC; earlier shifts in retention time (compared to either component run alone) show the formation of a larger structure. NS-EM was used as previously described to confirm the structures of designs that passed these steps.

B1: d2.7 (designed binder)
chain: MSDEEERNELIKRIREAAQRAREAAERTGDPRVRELARELAKLAQIAFYLVLHDPSAKEVNLALELIVKAIELAVRALEEAEKTGDPHARELAREIVRLAVELARAVAEAAEEAKKQGNSELAEQVARAAQVALEVIKAAITAAKQGDRKAFRAALELVLEVIKAIEEAVKQGNPKKVAEVALKAELIRIVVQNAANKGDDADEAVEAARAAFEIVLAAAQLAGIDSEEVLELAARLIKEVVENAQREGYDIAVAAIAAAVAFAVVAVAAAAADITSSEVLELAIRLIKEVVENAVREGYVILLAALAAAAAFVVVAAAAKRAGITSSETLKRAIEEIRKRVEEAQREGNDISEAARQAAEEFRKKAEELKGSLEHHHHHH
notes: Homodimer for D2 dihedral cages; C-terminal GS linker and 6xHis tag; also called d2.7 AbC-forming design
- binding result: binds

B2: i52.6 (designed binder)
chain: MSDEEERNELIKRIREAAQRAREAAERTGDPRVRELARELARLAQRAFYLVLHDPSSSDVNEALKLIVEAIEAAVRALEAAERTGDPKVREEARELVRRAVEAAEEVQRNPSSSEVNEKLKAIVVEIEVKVASLEAKEVTDPDKALKIAKKVIELALEAVKENPSTEALRAVLEAVRLASEVAKRVTDPDKALKIAKLVIELALEAVKEDPSTDALRAVLEAVRLASEVAKRVTDPDKALKIAKLVLELAAEAVKEDPSTDALRAAKEAERLATEVAKRVTDPKKAREIEMLVLKLQMEAILAETEEVKKEIEESKKRPQSESAKNLILIMQLLINQIRLLALQIRMLALQLQEGSLEHHHHHH
notes: Homopentamer for I52 icosahedral cages; C-terminal GS linker and 6xHis tag; also called i52.6 AbC-forming design
- binding result: binds

B3: d2.3 (designed binder)
chain: MSDEEERNELIKRIREAAQRAREAAERTGDPRVRELARELARIAQIAFYLVLHDPSSSEVNEALKAVVKAIELAVRALEEAEKTGDPEVRELAREVVRLAVEVATATAAGENDTLRKVAERALRLAKEAAKRGDAKAAKQAAKIAKLAAANAGDEDVLKKVELVRLAIELVEIVVENAKRKGDDDKEAAEAALAAFRIVLAAAQLAGIASLEVLELALRLIKEVVENAQREGYDIAVAAIAAAVAFAVVAVAAAAADITSSEVLELAIRLIKEVVENAQREGYVILLAALAAAAAFVVVAAAAKRAGITSSETLKRAIEEIRKRVEEAQREGNDISEAARQAAEEFRKKAEELKGSLEHHHHHH
notes: also called d2.3 AbC-forming design
- binding result: binds

B4: d2.4 (designed binder)
chain: MSDEEERNELIKRIREAAQRAREAAERTGDPRVRELARELARIAQIAFYLVLHDPSSSEVNEALKAVVKAIELAVRALEAAEKTGDPRVRELAREVVKAAVDVAEAAQAGLNDKLREVAEKALRLAKEALKEGDSTAAELAAEIARLAAKLAGDEDVLKKVKLVLEAIKLVKIVVENAKRKGDDSKEAAEAAVAAFLIVLAAAKLAGIASEEVLELAARLIKEVVENAQREGYDIAVAAIAAAVAFAVVAVAAAAADITSSEVLELAIRLIKEVVENAQREGYVILLAALAAAAAFVVVAAAAKRAGITSSETLKRAIEEIRKRVEEAQREGNDISEAARQAAEEFRKKAEELKGSLEHHHHHH
notes: Homodimer for D2 dihedral cages; C-terminal GS linker and 6xHis tag; also called d2.4 AbC-forming design
- binding result: binds

B5: i52.3 (designed binder)
chain: MSDEEERNELIKRIREAAQRAREAAERTGDPRVRELARELARLAQRAFYLVLHDPSSSDVNEALKLIVEAIEAAVRALEAAERAGDPELREDAREAVRLAVEAAEEVQRNPSSSTANLLLKAIVALAEALAAAANGDKEKFKKAAESALEIAKRVVEVASKEGDPEAVLEAAKVALRVAELAAKNGDKEVFKKAAESALEVAKRLVEVASKEGDPELVLEAAKVALRVAELAAKNGDKEVFQKAAASAVEVALRLTEVASKEGDSELETEAAKVITRVRELASKQGDAAVAILAETAEVKLEIEESKKRPQSESAKNLILIMQLLINQIRLLVLQIRMLDEQRQEGSLEHHHHHH
notes: Homopentamer for I52 icosahedral cages; C-terminal GS linker and 6xHis tag; also called i52.3 AbC-forming design
- binding result: binds
